Reference: patent US20230235004A1 (published 2023)
Substitutions are numbered along the chain they refer to. Blank lines part the entries; values can stand above or below the binder they belong to.

Tests used:
human MAdCAM protein = target: T1, human MAdCAM protein (human, UniProt Q13477 19-317, limits assumed); experiment: Octet
T1 construct: also called soluble monomeric human MAdCAM; recombinant human MAdCAM
T1 sequence (looked up): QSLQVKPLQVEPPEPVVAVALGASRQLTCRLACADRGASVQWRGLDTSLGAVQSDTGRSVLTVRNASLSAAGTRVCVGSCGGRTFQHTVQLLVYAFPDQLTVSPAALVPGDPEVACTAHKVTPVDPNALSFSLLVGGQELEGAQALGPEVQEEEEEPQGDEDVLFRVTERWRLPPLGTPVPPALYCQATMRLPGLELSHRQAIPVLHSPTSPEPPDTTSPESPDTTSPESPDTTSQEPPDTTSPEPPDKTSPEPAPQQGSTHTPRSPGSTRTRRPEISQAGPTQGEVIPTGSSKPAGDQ

[1] = target: T2, recombinant mouse MAdCAM-1 (mouse, UniProt Q61826 22-364, limits assumed); experiment: Octet
T2 construct: also called mMAdCAM-1
T2 sequence (looked up): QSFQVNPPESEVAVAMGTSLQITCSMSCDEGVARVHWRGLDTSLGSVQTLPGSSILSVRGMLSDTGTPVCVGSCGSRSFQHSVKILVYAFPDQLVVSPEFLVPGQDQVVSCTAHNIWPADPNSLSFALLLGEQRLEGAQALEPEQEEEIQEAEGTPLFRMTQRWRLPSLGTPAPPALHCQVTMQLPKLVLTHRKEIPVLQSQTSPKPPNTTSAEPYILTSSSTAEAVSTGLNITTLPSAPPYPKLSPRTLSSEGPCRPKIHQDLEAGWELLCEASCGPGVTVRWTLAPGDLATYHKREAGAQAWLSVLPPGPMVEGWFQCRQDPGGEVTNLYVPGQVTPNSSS

[2] = target: T3, mouse MAdCAM expressed on cells (mouse, UniProt Q61826 22-405); experiment: cell binding
T3 construct: whole, on cells
T3 sequence (looked up): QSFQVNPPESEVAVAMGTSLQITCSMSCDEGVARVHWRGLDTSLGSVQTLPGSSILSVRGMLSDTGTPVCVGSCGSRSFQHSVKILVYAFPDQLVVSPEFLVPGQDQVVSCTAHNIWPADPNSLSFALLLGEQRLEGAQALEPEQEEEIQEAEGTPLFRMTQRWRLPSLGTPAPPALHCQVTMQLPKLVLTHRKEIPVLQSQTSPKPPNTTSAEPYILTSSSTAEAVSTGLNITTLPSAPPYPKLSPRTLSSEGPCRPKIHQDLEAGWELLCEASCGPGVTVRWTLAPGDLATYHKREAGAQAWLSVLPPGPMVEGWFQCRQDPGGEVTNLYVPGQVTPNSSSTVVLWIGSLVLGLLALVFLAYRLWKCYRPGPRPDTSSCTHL

[3] = target: T4, human MAdCAM expressed on cells (human, UniProt Q13477 19-382); experiment: cell binding
T4 construct: whole, on cells
T4 sequence (looked up): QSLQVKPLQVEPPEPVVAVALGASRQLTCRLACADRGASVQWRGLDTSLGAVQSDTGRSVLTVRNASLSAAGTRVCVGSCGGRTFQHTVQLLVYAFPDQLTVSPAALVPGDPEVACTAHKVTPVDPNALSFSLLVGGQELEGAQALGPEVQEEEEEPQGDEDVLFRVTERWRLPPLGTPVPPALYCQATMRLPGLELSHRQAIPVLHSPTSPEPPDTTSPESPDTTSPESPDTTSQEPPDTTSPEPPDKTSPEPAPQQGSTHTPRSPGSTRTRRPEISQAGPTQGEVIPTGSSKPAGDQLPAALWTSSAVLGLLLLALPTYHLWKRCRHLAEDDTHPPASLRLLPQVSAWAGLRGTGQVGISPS

B1: MAdCAM Antibody Table 2 clone 17 (antibody, V domains shown)
VH: QVQLVQSGAEVKKPGSSVKVSCKASGYTFTDYHIHWVRQAPGQGLEWMGGIVPRSGSTTYAQKFQGRVTITADESTSTAYMELSSLRSEDTAVYYCAKDESSGWYYFDYWGQGTLVTVSS
VL: DIVMTQSPLSLPVTPGEPASISCRSSQSLLHSNGYNYLDWYLQKPGQSPQLLIYSAYNRASGVPDRFSGSGSGTDFTLKISRVEAEDVGVYYCMQALQTPLTFGQGTKVEIK
notes: IgG format
binding result (human MAdCAM protein): binds
binding result [1]: no binding
binding result [2]: no binding
binding result [3]: binds

B4: MAdCAM Antibody Table 2 clone 8 (antibody, V domains shown)
VH: QVQLVQSGAEVKKPGASVKVSCKASGYTFTGYHIHWVRQAPGQGLEWMGIINPSGGSTIYAQKFQGRVTMTRDTSTSTVYMELSSLRSEDTAVYYCAKDWSSWYLGPFDYWGQGTLVTVSS
VL: DIQMTQSPSSLSASVGDRVTITCRASQNISSSLNWYQQKPGKAPKLLIYAASSLQSGVPSRFSGSGSGTDFTLTISSLQPEDFATYYCQQSYTTPYTFGQGTKVEIK
notes: IgG format
binding result [1]: binds
binding result [2]: binds
binding result [3]: binds

B6: MAdCAM Antibody Table 2 clone 82 (antibody, V domains shown)
VH: QVQLVQSGAEVKKPGASVKVSCKASGYTFTRHWIHWVRQAPGQGLEWMGWINVKTGGAGYAQKFQGRVTMTRDTSTSTVYMELSSLRSEDTAVYYCARESSGWYGTDVWGQGTTVTVSS
VL: B4 VL with V19A, N28S, S31N, S32Y, N34A, Y92N, T93S, T94F, Y96L, Q100G
notes: IgG format
binding result (human MAdCAM protein): binds
binding result [2]: binds
binding result [3]: binds

B7: MAdCAM Antibody Table 2 clone 78 (antibody, V domains shown)
VH: QVQLVQSGAEVKKPGSSVKVSCKASGGTFSSYAISWVRQAPGQGLEWMGWMEPHTGNTRYAQKFQGRVTITADESTSTAYMELSSLRSEDTAVYYCAKGGFSWFDPWGQGTLVTVSS
VL: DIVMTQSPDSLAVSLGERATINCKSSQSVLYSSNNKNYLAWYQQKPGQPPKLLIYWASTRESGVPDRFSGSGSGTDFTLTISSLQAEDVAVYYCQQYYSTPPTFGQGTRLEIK
notes: IgG format
binding result (human MAdCAM protein): binds
binding result [2]: binds
binding result [3]: binds

B9: MAdCAM Antibody Table 2 clone 20 (antibody, V domains shown)
VH: EVQLLESGGGLVQPGGSLRLSCAASGFTFSDSAMHWVRQAPGKGLEWVSAISGSGSTIYYADSVKGRFTISRDNSKNTLYLQMNSLRAEDTAVYYCVSDIAVAGHWYFDLWGRGTLVTVSS
VL: DIQMTQSPSSLSASVGDRVTITCRASQSISTFLNWYQQKPGKAPKLLIYAASRLEGGVPSRFSGSGSGTDFTLTISSLQPEDFATYYCQQANSFPLTFGPGTKVDIK
notes: IgG format
binding result (human MAdCAM protein): binds
binding result [1]: no binding
binding result [2]: no binding
binding result [3]: binds

B11: MAdCAM Antibody Table 2 clone 83 (antibody, V domains shown)
VH: EVQLLESGGGLVQPGGSLRLSCAASGFTFSSYWMHWVRQAPGKGLEWVAAISYDGKYKDYEDSVKGRFTISRDNSKNTLYLQMNSLRAEDTAVYYCARENKQWLASFDYWGQGTLVTVSS
VL: DIQMTQSPSSLSASVGDRVTITCQASQDISNFVNWYQQKPGKAPKLLIYAANLRSGVPSRFSGSGSGTDFTLTISSLQPEDFATYYCQQANSFPVTFGPGTKVDIK
notes: IgG format
binding result (human MAdCAM protein): binds
binding result [2]: binds
binding result [3]: binds

B12: MAdCAM Antibody Table 2 clone 7 (antibody, V domains shown)
VH: EVQLLESGGGLVQPGGSLRLSCAASGFTFSDYQMSWVRQAPGKGLEWVAIISHADGGFKDYADSVKGRFTISRDNSKNTLYLQMNSLRAEDTAVYYCAKPYSSGWSAVYYFDYWGQGTLVTVSS
VL: DIQMTQSPSSLSASVGDRVTITCRASRGITNDLGWYQQKPGKAPKLLIYAASTLQSGVPSRFSGSGSGTDFTLTISSLQPEDFATYYCQQAYSFPWTFGQGTKVEIK
notes: IgG format
binding result [1]: binds
binding result [2]: binds
binding result [3]: binds

B13: MAdCAM Antibody Table 2 clone 11 (antibody, V domains shown)
VH: EVQLLESGGGLVQPGGSLRLSCAASGFTFSDYYMNWVRQAPGKGLEWVSVIGESGGSTYYADSVKGRFTISRDNSKNTLYLQMNSLRAEDTAVYYCAADPVSRWPKHGGGDYWGQGTLVTVSS
VL: B4 VL with N28G, N34A, S53T, T93S, Y96W
notes: IgG format
binding result (human MAdCAM protein): binds
binding result [1]: binds
binding result [2]: binds
binding result [3]: binds

B14: MAdCAM Antibody Table 2 clone 76 (antibody, V domains shown)
VH: EVQLLESGGGLVQPGGSLRLSCAASGFTFDDYTMHWVRQAPGKGLEWVSDISGSGGSTYYADSVKGRFTISRDNSKNTLYLQMNSLRAEDTAVYYCAKDVVVAGTPLHFDYWGQGTLVTVSS
VL: DIQMTQSPSSLSASVGDRVTITCQASQDISNYLNWYQQKPGKAPKLLIYAASYLQSGVPSRFSGSGSGTDFTLTISSLQPEDFATYYCQQAHNYPITFGQGTRLEIK
notes: IgG format
binding result (human MAdCAM protein): binds
binding result [2]: binds
binding result [3]: binds

More lines, now with the values ahead:

binding result [1]: no binding
binding result [2]: no binding
B2: MAdCAM Antibody Table 2 clone 28 (antibody, V domains shown)
VH: EVQLLESGGGLVQPGGSLRLSCAASGFTFSSYAMSWVRQAPGKGLEWVSYISSSSTYTNYADSVKGRFTISRDNSKNTLYLQMNSLRAEDTAVYYCARANSSSWYDWYFDLWGQGTLVTVSS
VL: not shown
notes: IgG format

binding result [1]: no binding
binding result [2]: no binding
B3: MAdCAM Antibody Table 2 clone 29 (antibody, V domains shown)
VH: B2 VH with A33Q
VL: not shown
notes: IgG format

binding result [1]: no binding
binding result [2]: no binding
B5: MAdCAM Antibody Table 2 clone 6 (antibody, V domains shown)
VH: EVQLLESGGGLVQPGGSLRLSCAASGFTFNNYAFHWVRQAPGKGLEWVSRINSYGTSTTYADSVKGRFTISRDNSKNTLYLQMNSLRAEDTAVYYCAREGPVAGYWYFDLWGQGTLVTVSS
VL: B4 VL with N28I, S30G, S31T, S32N, N34A, A50G, T93R, T94L, Y96F
notes: IgG format

binding result [1]: no binding
binding result [2]: no binding
B8: MAdCAM Antibody Table 2 clone 14 (antibody, V domains shown)
VH: QVQLVQSGAEVKKPGSSVKVSCKASGYTFTNYYMHWVRQAPGQGLEWMGGIIPIVDGVKYAQKFQGRVTITADESTSTAYMELSSLRSEDTAVYYCAKGQFTGNYYYGMDYWGQGTLVTVSS
VL: DIQMTQSPSSLSASVGDRVTITCQANQDISNYLNWYQQKPGKAPKLLIYRASKLEAGVPSRFSGSGSGTDFTLTISSLQPEDFATYYCQQSSEIPYSFGQGTKVEIK
notes: IgG format

binding result [1]: no binding
binding result [2]: no binding
binding result [3]: binds
B10: MAdCAM Antibody Table 2 clone 24 (antibody, V domains shown)
VH: EVQLVESGGGLVKPGGSLRLSCAASGFTFSSYWMSWVRQAPGKGLEWVSRISSDGRITTYAAPVKGRFTISRDDSKNTLYLQMNSLKTEDTAVYYCARGTSYCTGGVCDIDYWGQGTLVTVSS
VL: B9 VL with S30G, T31R, F32N, A50S, R53N, E55Q, G56S, A91S, N92Y, F94I
notes: IgG format

binding result (human MAdCAM protein): binds
binding result [2]: binds
binding result [3]: binds
B15: MAdCAM Antibody Table 2 clone 84 (antibody, V domains shown)
VH: QVQLVQSGAEVKKPGASVKVSCKASGGTFSSSAISWVRQAPGQGLEWMGWISAYNGYTNYAQKFQGRVTMTRDTSTSTVYMELSSLRSEDTAVYYCASRVHSGGSYPDDYWGQGTLVTVSS
VL: B14 VL with Q27E, D28H, S30Y, Y53S, A91T, H92D, N93S, Y94I, R103K, L104V
notes: IgG format
